First the molecules themselves.
B1: pep12 (FIG. 4B numbering), thioredoxin prey fusion (designed binder, not shown: large carriers)
chain: MSDKIIHLTDDSFDTDVLKADGAILVDFWAEWCGPRPLTGRWVVWGRRHEECGLTGPCKMIAPILDEIADEYQGKLTVAKLNIDQNPGTAPKYGIRGIPTLLLFKNGEVAATKVGALSKGQLKEFLDANLA
B2: pep13 (FIG. 4B numbering), thioredoxin prey fusion (designed binder, not shown: large carriers)
chain: MSDKIIHLTDDSFDTDVLKADGAILVDFWAEWCGPPVCCMMYGHRTAPHSVFNVDGPCKMIAPILDEIADEYQGKLTVAKLNIDQNPGTAPKYGIRGIPTLLLFKNGEVAATKVGALSKGQLKEFLDANLA
B3: pep7 (FIG. 4B numbering), thioredoxin prey fusion (designed binder, not shown: large carriers)
chain: MSDKIIHLTDDSFDTDVLKADGAILVDFWAEWCGPQLYAGCYLGVVIASSLSIRVGPCKMIAPILDEIADEYQGKLTVAKLNIDQNPGTAPKYGIRGIPTLLLFKNGEVAATKVGALSKGQLKEFLDANLA
B4: pep14 (FIG. 4B numbering), thioredoxin prey fusion (designed binder, not shown: large carriers)
chain: MSDKIIHLTDDSFDTDVLKADGAILVDFWAEWCGPWSPELLRAMVAFRWLLERRPGPCKMIAPILDEIADEYQGKLTVAKLNIDQNPGTAPKYGIRGIPTLLLFKNGEVAATKVGALSKGQLKEFLDANLA
B5: pep6 (FIG. 4B numbering), thioredoxin prey fusion (designed binder, not shown: large carriers)
chain: MSDKIIHLTDDSFDTDVLKADGAILVDFWAEWCGPRVKLGYSFWAQSLLRCISVGGPCKMIAPILDEIADEYQGKLTVAKLNIDQNPGTAPKYGIRGIPTLLLFKNGEVAATKVGALSKGQLKEFLDANLA
B6: pep9 (FIG. 4B numbering), thioredoxin prey fusion (designed binder, not shown: large carriers)
chain: MSDKIIHLTDDSFDTDVLKADGAILVDFWAEWCGPQQRFVFSPSWFTCAGTSDFWGPEPLFDWTRDGPCKMIAPILDEIADEYQGKLTVAKLNIDQNPGTAPKYGIRGIPTLLLFKNGEVAATKVGALSKGQLKEFLDANLA
B7: pep8 (designed binder, not shown: large carriers; small tags and cut ends)
chain: MSDKIIHLTDDSFDTDVLKADGAILVDFWAEWCGPYSFVHHGFFNFRVSWREMLAGPCKMIAPILDEIADEYQGKLTVAKLNIDQNPGTAPKYGIRGIPTLLLFKNGEVAATKVGALSKGQLKEFLDANLA
modifications: peptide loop embedded in the thioredoxin active-site loop between Cys33 and Cys36 (may form a disulfide)
notes: The purified His6 form is m43
B8: pep2 (designed binder, not shown: small tags and cut ends)
chain: MSDKIIHLTDDSFDTDVLKADGAILVDFWAEWCGPLVCKSYRLDWEAGALFRSLFGPCKMIAPILDEIADEYQGKLTVAKLNIDQNPGTAPKYGIRGIPTLLLFKNGEVAATKVGALSKGQLKEFLDANLA
modifications: Peptide loop sits in the TrxA active-site loop; flanking Cys33 and Cys36 may form a disulfide
notes: the purified His6 form is m40
B9: pep5 (designed binder, not shown: large carriers; small tags and cut ends)
chain: MSDKIIHLTDDSFDTDVLKADGAILVDFWAEWCGPSVRMRYGIDAFFDLGGLLHGGPCKMIAPILDEIADEYQGKLTVAKLNIDQNPGTAPKYGIRGIPTLLLFKNGEVAATKVGALSKGQLKEFLDANLA
modifications: peptide loop embedded in the thioredoxin active-site loop between Cys33 and Cys36 (may form a disulfide)
notes: the purified His6 form is m42
B10: pep11 (designed binder, not shown: small tags and cut ends)
chain: MSDKIIHLTDDSFDTDVLKADGAILVDFWAEWCGPWRRMELDAEIRWVKPISPLEGPCKMIAPILDEIADEYQGKLTVAKLNIDQNPGTAPKYGIRGIPTLLLFKNGEVAATKVGALSKGQLKEFLDANLA
modifications: Peptide loop sits in the TrxA active-site loop; flanking Cys33 and Cys36 may form a disulfide
notes: The purified His6 form is m45
B11: pep10 (designed binder, not shown: small tags and cut ends)
chain: MSDKIIHLTDDSFDTDVLKADGAILVDFWAEWCGPQVWSLWALGWRWLRRYGWNMGPCKMIAPILDEIADEYQGKLTVAKLNIDQNPGTAPKYGIRGIPTLLLFKNGEVAATKVGALSKGQLKEFLDANLA
modifications: Peptide loop sits in the TrxA active-site loop; flanking Cys33 and Cys36 may form a disulfide
notes: The purified His6 form is m44
B12: peptide 13 (FIG. 3A/3B numbering), thioredoxin prey fusion (designed binder, not shown: large carriers; small tags and cut ends)
chain: B9 chain
modifications: peptide loop embedded in the thioredoxin active-site loop between Cys33 and Cys36 (may form a disulfide)

T2 sequence (Q00526 whole entry): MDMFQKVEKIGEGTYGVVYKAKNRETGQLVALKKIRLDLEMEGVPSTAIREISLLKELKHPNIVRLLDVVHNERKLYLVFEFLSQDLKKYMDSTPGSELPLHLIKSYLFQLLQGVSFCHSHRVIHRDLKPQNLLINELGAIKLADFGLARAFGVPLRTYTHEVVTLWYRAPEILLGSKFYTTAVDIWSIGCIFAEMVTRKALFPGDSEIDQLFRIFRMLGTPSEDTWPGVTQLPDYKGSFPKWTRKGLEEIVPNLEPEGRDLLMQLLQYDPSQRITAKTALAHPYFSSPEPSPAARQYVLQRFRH
T3 sequence (P23573 whole entry): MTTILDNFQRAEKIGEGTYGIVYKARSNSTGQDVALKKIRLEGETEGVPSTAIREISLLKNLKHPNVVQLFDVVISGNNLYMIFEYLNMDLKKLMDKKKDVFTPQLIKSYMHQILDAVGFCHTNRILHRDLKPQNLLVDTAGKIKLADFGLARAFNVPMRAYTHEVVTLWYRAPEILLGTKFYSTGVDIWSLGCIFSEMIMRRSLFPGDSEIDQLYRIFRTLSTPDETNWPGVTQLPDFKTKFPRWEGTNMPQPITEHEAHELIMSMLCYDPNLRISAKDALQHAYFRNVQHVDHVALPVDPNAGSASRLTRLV

One experiment deals with T1, Cdk4 (Homo sapiens (Human), UniProt P11802 2-303).
T1 construct: construct not described
T1 sequence (P11802 2-303 limits assumed): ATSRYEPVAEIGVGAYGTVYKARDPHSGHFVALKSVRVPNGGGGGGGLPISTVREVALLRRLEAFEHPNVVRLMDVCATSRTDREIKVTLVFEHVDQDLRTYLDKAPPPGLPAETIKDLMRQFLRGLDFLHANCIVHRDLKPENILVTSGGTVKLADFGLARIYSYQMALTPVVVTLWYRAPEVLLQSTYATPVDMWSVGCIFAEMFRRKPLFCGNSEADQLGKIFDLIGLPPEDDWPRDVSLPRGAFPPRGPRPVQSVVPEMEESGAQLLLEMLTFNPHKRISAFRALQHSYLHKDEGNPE
Nature of the experiment: yeast interaction trap mating assay (FIG. 4A).
Consider B1, for which the binding result was “no binding”.

As for B2, the binding result is “no binding”.

Regarding B3, the binding result is “no binding”.

With B4, the binding result is “no binding”.

For the molecule B5, the binding result is on record as “no binding”.

Take B6: the binding result is listed as “no binding”.

A further experiment concerns the target T2, LexA-Cdk3 bait (human, UniProt Q00526 1-305, limits assumed).
T2 construct: also called human Cdk3; not shown: bacterial LexA protein
The experiment can be described thus: yeast interaction trap mating assay, lacZ reporter on Xgal.
Take B1: the binding result is “no binding”.

For the molecule B7, the binding result was “no binding”.

With B8, the binding result is listed as “no binding”.

Turning to B9, the binding result is “binds”.

On to B10, for which the binding result was “no binding”.

As for B11, the binding result is given as “no binding”.

As for B2, the binding result is given as “no binding”.

Turning to B3, the binding result is “no binding”.

With B4, the binding result is recorded as “no binding”.

For the molecule B5, the binding result is “no binding”.

Turning to B6, the binding result is given as “no binding”.

For a further experiment, the target named is T1, Cdk4. The description is as above.
Turning to B7, the binding result was “no binding”.

Regarding B8, the binding result is given as “no binding”.

Turning to B9, the binding result was “no binding”.

For the molecule B10, the binding result is recorded as “no binding”.

In the case of B11, the binding result is “no binding”.

Another experiment has as its target T3, Drosophila Cdc2c (Drosophila, UniProt P23573 1-314, limits assumed).
T3 construct: bait construct not described
The experiment is described as above.
B1: the binding result is “no binding”.

Turning to B7, the binding result is on record as “no binding”.

Take B8: the binding result is “no binding”.

Turning to B9, the binding result is on record as “no binding”.

As to B10, the binding result is “no binding”.

As to B11, the binding result is given as “no binding”.

For B2, the binding result is “no binding”.

With B3, the binding result was “no binding”.

For the molecule B4, the binding result is given as “no binding”.

With B5, the binding result is “no binding”.

Regarding B6, the binding result was “no binding”.

The target of the next experiment is T4, Cdc2 (Homo sapiens (Human), UniProt P06493 1-297).
T4 construct: bait construct and species not described
T4 sequence (P06493 whole entry): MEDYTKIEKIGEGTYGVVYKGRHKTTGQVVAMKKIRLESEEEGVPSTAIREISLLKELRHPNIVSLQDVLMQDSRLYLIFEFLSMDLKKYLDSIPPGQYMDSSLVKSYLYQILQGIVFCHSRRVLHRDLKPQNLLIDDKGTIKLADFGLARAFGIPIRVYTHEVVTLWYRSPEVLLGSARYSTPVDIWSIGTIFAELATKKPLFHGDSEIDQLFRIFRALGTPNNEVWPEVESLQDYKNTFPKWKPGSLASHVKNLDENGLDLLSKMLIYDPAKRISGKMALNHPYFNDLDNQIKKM
Described as above.
For B1, the binding result is “no binding”.

In the case of B7, the binding result is reported as “no binding”.

For the molecule B8, the binding result is given as “no binding”.

B9: the binding result is given as “no binding”.

In the case of B10, the binding result is “no binding”.

Consider B11, for which the binding result is recorded as “no binding”.

In the case of B2, the binding result is “no binding”.

For the molecule B3, the binding result is “no binding”.

With B4, the binding result was “no binding”.

Turning to B5, the binding result is “no binding”.

B6: the binding result is listed as “no binding”.

The target in the next experiment is T5, CDC28 (Saccharomyces cerevisiae (strain ATCC …, UniProt P00546 1-298)).
T5 construct: bait construct not described
T5 sequence (P00546 whole entry): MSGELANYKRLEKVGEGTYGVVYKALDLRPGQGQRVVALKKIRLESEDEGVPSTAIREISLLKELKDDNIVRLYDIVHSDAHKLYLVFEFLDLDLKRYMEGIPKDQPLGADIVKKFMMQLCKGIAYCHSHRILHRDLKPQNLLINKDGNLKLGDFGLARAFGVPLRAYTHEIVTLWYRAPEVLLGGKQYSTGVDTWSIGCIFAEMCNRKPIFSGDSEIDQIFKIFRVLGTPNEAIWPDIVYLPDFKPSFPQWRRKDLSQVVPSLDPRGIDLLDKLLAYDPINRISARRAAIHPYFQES
The description is as above.
On to B1, for which the binding result is “no binding”.

With B7, the binding result is recorded as “no binding”.

Take B8: the binding result is on record as “no binding”.

Take B9: the binding result is “no binding”.

Take B10: the binding result is on record as “no binding”.

Regarding B11, the binding result is “no binding”.

B2: the binding result is “no binding”.

Consider B3, for which the binding result is reported as “no binding”.

B4: the binding result is on record as “no binding”.

Take B5: the binding result is recorded as “no binding”.

On to B6, for which the binding result was “no binding”.

A further experiment deals with T6, Cdk7.
T6 construct: Bait strain named only on the sheet
T6 chain: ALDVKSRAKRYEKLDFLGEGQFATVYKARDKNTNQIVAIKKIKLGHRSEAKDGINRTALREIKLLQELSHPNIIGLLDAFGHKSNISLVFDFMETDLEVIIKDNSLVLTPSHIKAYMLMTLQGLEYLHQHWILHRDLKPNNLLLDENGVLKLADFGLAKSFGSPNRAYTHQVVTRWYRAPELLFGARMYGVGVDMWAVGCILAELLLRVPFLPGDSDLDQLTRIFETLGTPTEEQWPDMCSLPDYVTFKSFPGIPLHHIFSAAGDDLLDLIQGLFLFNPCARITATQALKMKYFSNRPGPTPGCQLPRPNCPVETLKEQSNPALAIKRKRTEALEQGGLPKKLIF
The description is as above.
B7: the binding result is on record as “no binding”.

For B8, the binding result is recorded as “no binding”.

Regarding B9, the binding result is listed as “no binding”.

As to B10, the binding result is “no binding”.

As for B11, the binding result is “no binding”.

In another experiment the target is T7, Cdk6.
T7 construct: Bait strain named only on the sheet
Described as above.
In the case of B7, the binding result was “no binding”.

Consider B8, for which the binding result is reported as “no binding”.

Consider B9, for which the binding result is “no binding”.

For B10, the binding result was “no binding”.

With B11, the binding result is on record as “no binding”.

A further experiment concerns the target human Cdk2 expressed from a plasmid in cdc28ts yeast (human, UniProt P24941 1-298). Nature of the experiment: cell-based or functional assay.
Take B12: the “fold decrease in plating efficiency of a Cdk2-dependent cdc28-1N yeast strain at the restrictive temperature” value is 10 fold.

The record behind these values is patent publication US20090130676A1 (GENERAL HOSPITAL, published 2009).
